From patent US6214588 come the findings set out here.

In the data set the test system is GAL4(1-147)-VP16 (Saccharomyces cerevisiae / herpes simplex virus?). As to conditions: in vitro transcription stimulation with purified holoenzyme, factor a, TBP; 10-fold in nuclear extract.

pGAL4CG- (+GAL4 site template) yielded an activity of 5 fold.
